Values belong to the binder of their own block, whether it stands above or below them.
Target: 抗Fasモノクローナル抗体HFE7A(マウス−マウスハイブリドーマHFE7A、FERM BP−5828が産生)
Test: 200 µg peptide pre-incubated with 0.25 µg HFE7A, then flow cytometry on WR19L12a cells; D355-364 control set to 100 % fluorescence

HFE7AとWR19L12a細胞との結合の阻害(%): 60 %
B1: 合成ペプチドP110 (peptide)
peptide: KCRCKPNFFC

HFE7AとWR19L12a細胞との結合の阻害(%): 50 %
B2: 合成ペプチドP100 (peptide)
peptide: EINCTRTQNT

— patent publication JP2000169393A
